# Reference: patent US20170363644
# Target: Aβ42 oligomers, P05067
protein,measurement,value
factor XII (FXII) (protein) IPPWEAPKEHKYKAEEHTVVLTVTGEPCHFPFQYHRQLYHKCTHKGRPGPQPWCATTPNFDQDQRWGYCLEPKKVKDHCSKHSPCQKGGTCVNMPSGPHCLCPQHLTGNHCQKEKCFEPQLLRFFHKNEIWYRTEQAAVARCQCKGPDAHCQRLASQACRTNPCLHGGRCLEVEGHRLCHCPVGYTGAFCDVDTKASCYDGRGLSYRGLARTTLSGAPCQPWASEATYRNVTAEQARNWGLGGHAFCRNPDNDIRPWCFVLNRDRLSWEYCDLAQCQTPTQAAPPTPVSPRLHVPLMPAQPAPPKPQPTTRTPPQSQTPGALPAKREQPPSLTRNGPLSCGQRLRKSLSSMTRVVGGLVALRGAHPYIAALYWGHSFCAGSLIAPCWVLTAAHCLQDRPAPEDLTVVLGQERRNHSCEPCQTLAVRSYRLHEAFSPVSYQHDLALLRLQEDADGSCALLSPYVQPVCLPSGAARPSETTLCQVAGWGHQFEGAEEYASFLQEAQVPFLSLERCSAPDVHGSSILPGMLCAGFLEGGTDACQGDSGGPLVCEDQAAERRLTLQGIISWGSGCGDRNKPGVYTDVAYYLAWIREHTVS,"FXII autoactivation, chromogenic substrate assay with purified FXII",Aβ42 oligomers can directly induce FXII autoactivation
same,FXII cleavage in human plasma (Western blot: FXII zymogen and FXIIa heavy chain),plasma incubated with Aβ42 had decreased FXII zymogen and increased FXIIa heavy chain compared to incubation with vehicle
